Assay results: publication PMC2861713

Columns and labels:
[1] = target: (His)10-p34ΔN/ΔC (p34 residues 37–292 linked to a 10 histidine tag) (Helicobacter pylori); assay: SEC; in the presence of 4 M urea; Superose 6 10/300 GL for (His)10-p34, Superose 12 10/300 GL (1.0 ml/min) for (His)10-p34ΔN/ΔC; mass against marker proteins
[2] = target: (His)10-p34(37–319) (Helicobacter pylori); assay: SEC; Superose 6 10/300 GL, in the presence of 2 M urea
[3] = target: (His)10-p34(37–319) (Helicobacter pylori); assay: SEC; Superose 6 10/300 GL, 0.5 ml/min, in the presence of 10% glycerol; mass from the Kav of the most prominent peak against marker proteins
[4] = target: (His)10-p34(37–319) (Helicobacter pylori); assay: SEC; in the presence of 4 M urea; Superose 6 10/300 GL for (His)10-p34, Superose 12 10/300 GL (1.0 ml/min) for (His)10-p34ΔN/ΔC; mass against marker proteins

Substance	stoichiometry N [1] [subunits]	stoichiometry N [2] [subunits]	stoichiometry N [3] [subunits]	stoichiometry N [4] [subunits]
(His)10-p34ΔN/ΔC (p34 residues 37–292 linked to a 10 histidine tag) (domain or fragment)	6	–	–	–
(His)10-p34(37–319) (domain or fragment)	–	6	6	6
